The values that follow are results of earlier work, collected in publication PMC5472405.

One may read the Kd as the concentration at which binding is half-saturated.

The series addresses CXCR4 (Homo sapiens) (UniProt P61073).

CXCL14, sequence (O95715 35-111): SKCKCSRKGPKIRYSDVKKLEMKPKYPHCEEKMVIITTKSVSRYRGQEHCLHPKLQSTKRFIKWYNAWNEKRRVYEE
CXCR4 (Homo sapiens), sequence (P61073 whole entry): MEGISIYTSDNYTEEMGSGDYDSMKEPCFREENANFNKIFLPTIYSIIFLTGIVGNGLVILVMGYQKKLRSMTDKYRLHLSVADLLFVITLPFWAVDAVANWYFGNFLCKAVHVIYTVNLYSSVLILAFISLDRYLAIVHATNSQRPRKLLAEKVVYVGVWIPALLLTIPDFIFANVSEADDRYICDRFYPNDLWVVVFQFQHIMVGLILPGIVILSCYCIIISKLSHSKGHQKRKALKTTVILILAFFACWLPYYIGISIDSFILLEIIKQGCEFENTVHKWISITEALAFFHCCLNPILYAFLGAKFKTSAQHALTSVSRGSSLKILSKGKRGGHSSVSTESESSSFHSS

As to CXCL14 (from UniProt O95715), the dissociation constant Kd was 0.0147 µM.
